Measurements: patent US12258584B2, “Methods and systems for converting precursor cells into intestinal tissues through directed differentiation” (Children's Hospital Medical Center, priority 2010, dated 2025)
Entries after “also recorded” stand apart in the source; their conditions may differ.

Tests used:
Type in all cases: cell-based, human
hESC-H9 = assay: Affymetrix microarray analysis of transcript levels during DE formation; settings: 3-day activin treated vs undifferentiated cultures, label = gene symbol of the transcript
Description: (§1) FIGS. 6a and 6b illustrate exemplary embodiments in accordance with the present invention, depicting characterization of DE formation from hESC and iPSC lines by immuno-fluorescence (IF) and Microarray analysis. (a) Undifferentiated hESCs stained with the pluripotency marker OCT4 (green) were treated for 3 days with ActivinA. […] (b) Transcriptional profile of DE induction. hESC-H9 and iPSC lines 3.5, 3.6 and 3.12 were analyzed before and after DE formation (activin differentiation) by Affymetrix DNA microarray analysis.
(§2) For microarray analysis, RNA was isolated from undifferentiated and 3-day activin treated hESC and iPSC cultures and used create target DNA for hybridization to Affymetrix Human 1.0 Gene ST Arrays using standard procedures (Affymetrix, Santa Clara, CA). Independent biological triplicates were performed for each cell line and condition. Affymetrix microarray Cel files were subjected to Robust Multichip Average (RMA) normalization in GeneSpring 10.1. Probe sets were first filtered for those that are overexpressed or underexpressed and then subjected to statistical analysis for differential expression by 3 fold or more between undifferentiated and differentiated cultures with p<0.05 using the Students T-test. Log 2 gene expression ratios were then subjected to hierachical clustering using the standard correlation distance metric as implemented in GeneSpring.

iPSC line 3.12 = assay: as above; settings: 3-day activin treated vs undifferentiated cultures, label = gene symbol of the transcript
Description: as §1, §2

iPSC3.4 = assay: as above; settings: 3-day activin treated vs undifferentiated cultures, label = gene symbol of the transcript
Description: as §2

H9 hESCs = assay: Hindgut spheroid formation from hESC-H9 definitive endoderm after growth factor treatment; settings: for Average # organoids per well / Total # organoids (# organoids/wells counted): hESC-H9 definitive endoderm
Description: (§3) Differentiation of PSCs into Definitive Endoderm (DE). Differentiation into Definitive Endoderm was carried out as previously described. Briefly, a 3 day ActivinA (R&D systems) differentiation protocol was used. Cells were treated with ActivinA (100 ng/ml) for three consecutive days in RPMI 1640 media (Invitrogen) with increasing concentrations of 0%, 0.2%, 2% HyClone defined FBS (dFBS) (Thermo Scientific).
(§4) The following tables illustrate the effects of growth factor treatment of hESCs and iPSCs. Generation of hindgut spheroids was tracked for (Table 1A) days 2-5 following growth factor treatment for H9 hESCs or (Table 1B) days 2-4 of growth factor treatment for iPSCs. Definitive endoderm was treated with either 500 ng/ml of FGF4 alone or 500 ng/ml of FGF4+Wnt3a. For both HESCs and iPSCs, hindgut spheroids formed much more robustly under FGF4+Wnt3a conditions. […] Over the course of 4 days, FGF4+Wnt3a treated H9 endoderm generated an average of 4.5 fold more spheroids than that treated with FGF4 alone.
(§5) Generation of hindgut spheroids was tracked for days 2-5 of growth factor treatment (H9 hESCs, Table 1A) or days 2-4 of growth factor treatment (iPSCs, Table 1B) for endoderm being given either 500 ng/ml FGF4 alone or 500 ng/ml FGF4+Wnt3a. In both cell lines, hindgut spheroids were much more robustly generated in FGF4+Wnt3a conditions. Over the course of 4 days, FGF4+Wnt3a treated H9 endoderm generated an average of 4.5 fold more spheroids than FGF4 treated alone.
(§6) Directed differentiation into hindgut and intestinal organoids. After differentiation into definitive endoderm, cells were incubated in 2% dFBS-DMEM/F12 with either 50 or 500 ng/ml FGF4 and/or 50 or 500 ng/ml Wnt3a (R&D Systems) for 2-4 days. After 2 days with treatment of growth factors, 3-dimensional floating spheroids were present in the culture. 3-dimensional spheroids were transferred into an in vitro system previously described to support intestinal growth and differentiation. Briefly, spheroids were embedded in Matrigel (BD Bioscience #356237) containing 500 ng/ml R-Spondin1 (R&D Systems), 100 ng/ml Noggin (R&D Systems) and 50 ng/ml EGF (R&D Systems). After the Matrigel solidified, media (Advanced DMEM/F12 (Invitrogen) supplemented with L-Glutamine, […], N2 supplement (R&D Systems), B27 supplement (Invitrogen), and Pen/Strep containing growth factors was overlaid and replaced every 4 days.

iPSC-3.5 = assay: Hindgut spheroid formation from iPSC-3.5 definitive endoderm after growth factor treatment; settings: 500 ng/ml; for Average # organoids per well / Total # organoids (# organoids/wells counted): iPSC-3.5 definitive endoderm
Description: as §3, §4, §5, §6

[1] = system: H9-HES cells differentiated into definitive endoderm; assay: Posteriorization of definitive endoderm: foregut (ALB, PDX1) and hindgut (CDX2) marker expression by RT-qPCR and immunofluorescence; settings: DE treated 24-48 hours; up to 500 ng/ml; RT-qPCR relative to no growth factor control
Description: Differentiation of DE in Permissive Media (Differentiation Protocol for FIG. 1). After differentiation into definitive endoderm, cells were incubated in DMEM/F12 plus 2% defined fetal bovine serum (dFBS) with either 0, 50, or 500 ng/ml of FGF4 and/or 0, 50, or 500 ng/ml of Wnt3a (R&D Systems) for 6, 48, or 96 hours. Cultures were then grown in permissive media consisting of DMEM plus 10% fetal bovine serum (FBS) for an additional 7 days.
FIGS. 1a through 1d illustrate exemplary embodiments of the present invention. FGF4 and Wnt3a act synergistically in a temporal and dose-dependent manner to specify stable posterior endoderm fate. ActivinA (100 ng/ml) was used to differentiate H9-HES cells into definitive endoderm (DE). DE was treated with the posteriorizing factors FGF4 (50, 500 ng), Wnt3a (50, 500 ng) or both for 6, 48 or 96 hours. Cells were then cultured in a permissive medium without growth factors for an additional seven days and analyzed for expression of foregut markers (ALB, PDX1) and the hindgut marker (CDX2) by RT-qPCR (a) and immunofluorescence (b-d). FGF4/Wnt-mediated changes in marker expression in (a) is relative to 3-day activin treated DE cultures that were grown for identical lengths of time in the absence of FGF4 or Wnt3a (control). […] Error bars denote standard deviation of triplicates. Significance is shown by; * (p<0.05), ^ (p<0.001), # (p<0.0001).
FIGS. 7a and 7b illustrate exemplary embodiments in accordance with the present invention, depicting time and concentration dependent induction of CDX2 by FGF4 and Wnt3a. (a) FGF4 and Wnt3a up-regulate CDX2 in a concentration dependant manner. 3-day ActivinA treated hESCs were treated for 48 hours with Wnt3a at 50 ng/ml or 500 ng/ml or FGF4 at 50 ng/ml or 500 ng/ml, or increasing concentrations of FGF4+Wnt3a. Cells were analyzed after 48 hours of treatment. […] CDX2 expression was normalized to the internal control beta-tubulin, and is shown relative to a 48 hour control cultured in the absence of growth factors. (b) FGF4 and Wnt3a up-regulate CDX2 in a time dependant manner. 48 hours of exposure to FGF4+Wnt3a was required for the most robust induction of CDX2. All time points shown are set relative to a 0 hour no growth factor control. 500 ng/ml of FGF4, Wnt3a or FGF4+Wnt3a was used for all time points. Note that 24 hour and 48 controls, in the absence of growth factors, show a significant and spontaneous up-regulation of CDX2. Error bars denote standard deviation of triplicates. Significance is shown by; * (p<0.05)
RNA was isolated using the Nucleospin II RNA isolation kit (Clonetech). […] Finally, qPCR was carried out using Quantitect SybrGreen MasterMix (Qiagen) on a Chromo4 Real-Time PCR (BioRad). […]

[2] = 500 ng/ml, 2 days (48 h) of GF treatment
[3] = 500 ng/ml, 3 days (72 h) of GF treatment
[4] = 500 ng/ml, 4 days (96 h) of GF treatment
[5] = 500 ng/ml, 5 days (120 h) of GF treatment

## NODAL
hESC-H9
  DIFF'D-H9] VS [IFF'D-H9] (folds), variation of transcript level during DE formation: 5.66 folds
iPSC line 3.12
  [DIFF'D-IPSC3.12] VS [IFF'D-IPSC3.12] (folds), variation of transcript level during DE formation: 5.77 folds
iPSC3.4
  [Diff'd-iPSC3.4] vs [Undiff d-iPSC3.4] (folds), variation of transcript level during DE formation: 5.00 folds

## NPPB
hESC-H9
  DIFF'D-H9] VS [IFF'D-H9] (folds), variation of transcript level during DE formation: 2.88 folds
iPSC line 3.12
  [DIFF'D-IPSC3.12] VS [IFF'D-IPSC3.12] (folds), variation of transcript level during DE formation: 3.62 folds
iPSC3.4
  [Diff'd-iPSC3.4] vs [Undiff d-iPSC3.4] (folds), variation of transcript level during DE formation: 3.57 folds

## DKK1
hESC-H9
  DIFF'D-H9] VS [IFF'D-H9] (folds), variation of transcript level during DE formation: 9.66 folds
iPSC line 3.12
  [DIFF'D-IPSC3.12] VS [IFF'D-IPSC3.12] (folds), variation of transcript level during DE formation: 6.27 folds
iPSC3.4
  [Diff'd-iPSC3.4] vs [Undiff d-iPSC3.4] (folds), variation of transcript level during DE formation: 7.27 folds

B1: FGF4: fibroblast growth factor 4, soluble growth factor (R&D Systems) known to posteriorize endoderm (protein, UniProt P08620 31-206, looked up)
Fibroblast growth factor 4: APTAPNGTLEAELERRWESLVALSLARLPVAAQPKEAAVQSGAGDYLLGIKRLRRLYCNVGIGFHLQALPDGRIGGAHADTRDSLLELSPVERGVVSIFGVASRFFVAMSSKGKLYGSPFFTDECTFKEILLPNNYNAYESYKYPGMFIALSKNGKTKKGNRVSPTMKVTHFLPRL
H9 hESCs; CDX2 immunostaining of treated DE cultures
  CDX2 staining of spheroids / 3D structures: weakly CDX2+
H9 hESCs; Table 1A, H9 hESC definitive endoderm
  fold fewer spheroids generated (versus FGF4+Wnt3a treated cultures): 4-10 fold
H9 hESCs; [2]
  Average # organoids per well: 0
  Total # organoids (# organoids/wells counted): 0/5
H9 hESCs; [3]
  Average # organoids per well: 0
  Total # organoids (# organoids/wells counted): 0/5
H9 hESCs; [4]
  Average # organoids per well: 8.8
  Total # organoids (# organoids/wells counted): 44/5
H9 hESCs; [5]
  Average # organoids per well: 4.75
  Total # organoids (# organoids/wells counted): 19/4
iPSC-3.5; 2 days (48 h) of GF treatment
  Average # organoids per well: 0
  Total # organoids (# organoids/wells counted): 0/4
iPSC-3.5; 3 days (72 h) of GF treatment
  Average # organoids per well: 2.5
  Total # organoids (# organoids/wells counted): 10/4
iPSC-3.5; 4 days (96 h) of GF treatment
  Average # organoids per well: 3.5
  Total # organoids (# organoids/wells counted): 14/4
[1]
  induction of hindgut marker CDX2 expression / posterior fate: neither factor alone was sufficient to robustly promote a posterior fate; also recorded: modest changes in CDX2 expression

B2: Wnt3a: soluble Wnt ligand (R&D Systems), growth factor known to posteriorize endoderm (protein, UniProt P56704 19-352, looked up)
Protein Wnt-3a: SYPIWWSLAVGPQYSSLGSQPILCASIPGLVPKQLRFCRNYVEIMPSVAEGIKIGIQECQHQFRGRRWNCTTVHDSLAIFGPVLDKATRESAFVHAIASAGVAFAVTRSCAEGTAAICGCSSRHQGSPGKGWKWGGCSEDIEFGGMVSREFADARENRPDARSAMNRHNNEAGRQAIASHMHLKCKCHGLSGSCEVKTCWWSQPDFRAIGDFLKDKYDSASEMVVEKHRESRGWVETLRPRYTYFKVPTERDLVYYEASPNFCEPNPETGSFGTRDRTCNVSSHGIDGCDLLCCGRGHNARAERRREKCRCVFHWCCYVSCQECTRVYDVHTCK
H9 hESCs; hESC definitive endoderm, 500 ng/ml
  in vitro gut-tube morphogenesis / spheroid formation: never observed; also recorded: never formed spheroids; also recorded: not observed
iPSC-3.5; iPSC definitive endoderm
  spheroid formation: never formed spheroids
[1]
  induction of hindgut marker CDX2 expression / posterior fate: neither factor alone was sufficient to robustly promote a posterior fate; also recorded: modest changes in CDX2 expression
